Tests used:
Assay in all cases: SPR
[1] = biological target: Palivizumab single-chain variable fragment, heavy-light order, fused to IgG1 Fc (P^scFvHLFc)
[2] = biological target: Palivizumab single-chain variable fragment, light-heavy order, fused to IgG1 Fc (P^scFvLHFc)
[3] = biological target: Palivizumab
Chain of Palivizumab (VH, as listed by the source, chain 1 of 2): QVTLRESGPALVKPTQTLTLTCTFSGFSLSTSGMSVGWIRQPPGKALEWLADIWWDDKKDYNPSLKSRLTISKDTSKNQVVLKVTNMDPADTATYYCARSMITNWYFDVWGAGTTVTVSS
Chain of Palivizumab (VL, as listed by the source, chain 2 of 2): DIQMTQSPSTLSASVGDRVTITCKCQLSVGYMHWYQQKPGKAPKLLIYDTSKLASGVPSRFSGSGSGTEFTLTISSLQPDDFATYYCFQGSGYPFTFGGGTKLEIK

Chain of Palivizumab single-chain variable fragment, light-heavy order, fused to IgG1 Fc (P^scFvLHFc) (chain, as listed by the source, chain 1 of 2): as the sequence (VH, as listed by the source, chain 1 of 2) above
Chain of Palivizumab single-chain variable fragment, light-heavy order, fused to IgG1 Fc (P^scFvLHFc) (chain, as listed by the source, chain 2 of 2): as the sequence (VL, as listed by the source, chain 2 of 2) above
Chain of Palivizumab single-chain variable fragment, heavy-light order, fused to IgG1 Fc (P^scFvHLFc) (chain, as listed by the source, chain 1 of 2): as the sequence (VH, as listed by the source, chain 1 of 2) above
Chain of Palivizumab single-chain variable fragment, heavy-light order, fused to IgG1 Fc (P^scFvHLFc) (chain, as listed by the source, chain 2 of 2): as the sequence (VL, as listed by the source, chain 2 of 2) above

Row | Binder | koff [1] | koff [2] | koff [3]
1 | anti-idiotypic nanobody for Palivizumab 1 (AIP1^VHH), soluble (VHH) VHH: DVQLQESGGGLVQAGGSLRLSCVASGLTFRYDMGWFRQAPGKEREFVAQITWRGGSATYYADSVKGRFTIARDIAKNAVYLQMNSLKPEDTAVYYCAAAYGSAGYRPDEYDSWGQGTQVTVSS | 6.56e-05 s⁻¹ | 4.2e-05 s⁻¹ | 
2 | anti-idiotypic nanobody for Palivizumab 2 (AIP2^VHH), soluble (VHH) VHH: DVQLQESGGGLVQAGGSLRLSCAASESLFRLNAMGWYRQAPGKQRELVAGITTSGDAVYADSVKGRFTISRDSAKNTVYLQTNNLKPEDTAVYYCNVRPRAGTWENARIGVWGQGTQVTVSS |  |  | 0.000733 s⁻¹

The next lines start with the values.

Row | koff [1] | koff [2] | koff [3] | Binder
3 |  |  | 0.00308 s⁻¹ | anti-idiotypic nanobody for Palivizumab 3 (AIP3^VHH), soluble (VHH) VHH: DVQLQESGGGLVQPGGSLRLSCVASGRTWSIYAMGWFRQAPGKEREFVTAISISRSESVTHYAESVTGRFTISRDNAKNTLHLQMNSLKPEDTAVYFCAADRRSIDPHHTIDYWGQGTQVTVSS
4 |  |  | 0.0148 s⁻¹ | anti-idiotypic nanobody for Palivizumab 4 (AIP4^VHH), soluble (VHH) VHH: DVQLQESGGGLVQAGGSLRLSCVASGRAFSRYDMGWFRQAPGKEREFVAQISWRGGSATSYADTVKGRFTIARDNAKNTVYLQMNSLKPEDTAVYYCNARTPTLSSWGQGTQVTVSS

From article PMC10630626 (2023)
